The labels stand for the following.
B1: HEEH_KT_rd6_0007 (parent)
chain: SIEEEIKKAEEAKEKGKTFIHGDFVATTEELLDELLKRLRKKL

This series covers variants of B1. The series is described as follows: folding stability dG (cDNA display proteolysis); higher = more stable. The conditions noted are these: PBS, room temperature.
Take SIEEEIKKAEEAKEKGKTFIHGDFVATTEELLDELLKRFRKKL [L39F]: the “folding stability dG” value was found to be 0.806 kcal/mol.

Regarding SIEEEIKKAEEAKEKGKTFIHGDFVATTEELLDELLKRKRKKL [L39K], the “folding stability dG” value is 0.102 kcal/mol.

On to SIEEEIKKAEEAKEKGKTFIHGDFVATTEELLDELLKRGRKKL [L39G], for which the “folding stability dG” value is -0.429 kcal/mol.

SIEEEIKKAEEAKEKGKTFIHGDFVATTEELLDELLKRMRKKL [L39M]: the “folding stability dG” value was 0.977 kcal/mol.

As for SIEEEIKKAEEAKEKGKTFIHGDFVATTEELLDELLKRARKKL [L39A], the “folding stability dG” value came out at 0.168 kcal/mol.

Regarding SIEEEIKKAEEAKEKGKTFIHGDFVATTEELLDELLKRERKKL [L39E], the “folding stability dG” value is -0.449 kcal/mol.

In the case of SIEEEIKKAEEAKEKGKTFIHGDFVATTEELLDELLKRNRKKL [L39N], the “folding stability dG” value is 0.087 kcal/mol.

Take SIEEEIKKAEEAKEKGKTFIHGDFVATTEELLDELLKRHRKKL [L39H]: the “folding stability dG” value stood at 0.059 kcal/mol.

As to SIEEEIKKAEEAKEKGKTFIHGDFVATTEELLDELLKRRRKKL [L39R], the “folding stability dG” value is 0.516 kcal/mol.

Regarding SIEEEIKKAEEAKEKGKTFIHGDFVATTEELLDELLKRSRKKL [L39S], the “folding stability dG” value was determined as 0.093 kcal/mol.

With SIEEEIKKAEEAKEKGKTFIHGDFVATTEELLDELLKRPRKKL [L39P], the “folding stability dG” value is -0.251 kcal/mol.

For SIEEEIKKAEEAKEKGKTFIHGDFVATTEELLDELLKRIRKKL [L39I], the “folding stability dG” value was found to be 0.845 kcal/mol.

Consider SIEEEIKKAEEAKEKGKTFIHGDFVATTEELLDELLKRTRKKL [L39T], for which the “folding stability dG” value was -0.05 kcal/mol.

Regarding SIEEEIKKAEEAKEKGKTFIHGDFVATTEELLDELLKRQRKKL [L39Q], the “folding stability dG” value was -0.059 kcal/mol.

Turning to SIEEEIKKAEEAKEKGKTFIHGDFVATTEELLDELRKRLRKKL [L36R], the “folding stability dG” value worked out at 0.531 kcal/mol.

Take SIEEEIKKAEEAKEKGKTFIHGDFVATTEELLDELYKRLRKKL [L36Y]: the “folding stability dG” value was determined as 0.652 kcal/mol.

Regarding SIEEEIKKAEEAKEKGKTFIHGDFVATTEELLDELQKRLRKKL [L36Q], the “folding stability dG” value is 0.304 kcal/mol.

For SIEEEIKKAEEAKEKGKTFIHGDFVATTEELLDELVKRLRKKL [L36V], the “folding stability dG” value turned out to be 0.838 kcal/mol.

In the case of SIEEEIKKAEEAKEKGKTFIHGDFVATTEELLDELPKRLRKKL [L36P], the “folding stability dG” value was -0.108 kcal/mol.

As for SIEEEIKKAEEAKEKGKTFIHGDFVATTEELLDELTKRLRKKL [L36T], the “folding stability dG” value came out at 0.179 kcal/mol.

For SIEEEIKKAEEAKEKGKTFIHGDFVATTEELLDELWKRLRKKL [L36W], the “folding stability dG” value was 0.856 kcal/mol.

With SIEEEIKKAEEAKEKGKTFIHGDFVATTEELLDELSKRLRKKL [L36S], the “folding stability dG” value was found to be 0.185 kcal/mol.

SIEEEIKKAEEAKEKGKTFIHGDFVATTEELLDELLWRLRKKL [K37W]: the “folding stability dG” value was 0.832 kcal/mol.

With SIEEEIKKAEEAKEKGKTFIHGDFVATTEELLDELLERLRKKL [K37E], the “folding stability dG” value was 1.25 kcal/mol.

On to SIEEEIKKAEEAKEKGKTFIHGDFVATTEELLDELLHRLRKKL [K37H], for which the “folding stability dG” value came out at 1.07 kcal/mol.

For the variant SIEEEIKKAEEAKEKGKTFIHGDFVATTEELLDELLSRLRKKL [K37S], the “folding stability dG” value stood at 1.21 kcal/mol.

In the case of SIEEEIKKAEEAKEKGKTFIHGDFVATTEELLDELLIRLRKKL [K37I], the “folding stability dG” value is 1.15 kcal/mol.

Take SIEEEIKKAEEAKEKGKTFIHGDFVATTEELLDELLQRLRKKL [K37Q]: the “folding stability dG” value came to 1.37 kcal/mol.

Regarding SIEEEIKKAEEAKEKGKTFIHGDFVATTEELLDELLMRLRKKL [K37M], the “folding stability dG” value turned out to be 1.4 kcal/mol.

Turning to SIEEEIKKAEEAKEKGKTFIHGDFVATTEELLDELLCRLRKKL [K37C], the “folding stability dG” value worked out at 2.06 kcal/mol.

With SIEEEIKKAEEAKEKGKTFIHGDFVATTEELLDELLARLRKKL [K37A], the “folding stability dG” value was 1.5 kcal/mol.

Regarding SIEEEIKKAEEAKEKGKTFIHGDFVATTEELLDELLNRLRKKL [K37N], the “folding stability dG” value was 1.17 kcal/mol.

Regarding SIEEEIKKAEEAKEKGKTFIHGDFVATTEELLDELLVRLRKKL [K37V], the “folding stability dG” value turned out to be 1.05 kcal/mol.

Consider SIEEEIKKAEEAKEKGKTFIHGDFVATTEELLDELLGRLRKKL [K37G], for which the “folding stability dG” value turned out to be 0.864 kcal/mol.

In the case of SIEEEIKKAEEAKEKGKTFIHGDFVATTEELLDELLTRLRKKL [K37T], the “folding stability dG” value came out at 1.26 kcal/mol.

Consider SIEEEIKKAEEAKEKGKTFIHGDFVATTEELLDELLRRLRKKL [K37R], for which the “folding stability dG” value stood at 1.68 kcal/mol.

SIEEEIKKAEEAKEKGKTFIHGDFVATTEELLDELLLRLRKKL [K37L]: the “folding stability dG” value amounted to 1.51 kcal/mol.

Consider SIEEEIKKAEEAKEKGKTFIHGDFVATTEELLDELLFRLRKKL [K37F], for which the “folding stability dG” value was 0.924 kcal/mol.

As for SIEEEIKKAEEAKEKGKTFIHGDFVATTEELLDELLPRLRKKL [K37P], the “folding stability dG” value was -0.465 kcal/mol.

Regarding SIEEEIKKAEEAKEKGKTFIHGDFVATTEELLDELLYRLRKKL [K37Y], the “folding stability dG” value worked out at 0.938 kcal/mol.

Consider SIEEEIKKAEEAKEKGKTFIHGDFVATTEELLDELLDRLRKKL [K37D], for which the “folding stability dG” value is 0.975 kcal/mol.

As for SIEEEIKKAEEAKEKGKTFIHGDFVATTEELLDELLKMLRKKL [R38M], the “folding stability dG” value is 1.9 kcal/mol.

As for SIEEEIKKAEEAKEKGKTFIHGDFVATTEELLDELLKVLRKKL [R38V], the “folding stability dG” value is 1.37 kcal/mol.

As for SIEEEIKKAEEAKEKGKTFIHGDFVATTEELLDELLKYLRKKL [R38Y], the “folding stability dG” value worked out at 2.01 kcal/mol.

As for SIEEEIKKAEEAKEKGKTFIHGDFVATTEELLDELLKILRKKL [R38I], the “folding stability dG” value is 1.73 kcal/mol.

For SIEEEIKKAEEAKEKGKTFIHGDFVATTEELLDELLKTLRKKL [R38T], the “folding stability dG” value was found to be 1.15 kcal/mol.

SIEEEIKKAEEAKEKGKTFIHGDFVATTEELLDELLKHLRKKL [R38H]: the “folding stability dG” value came to 1.6 kcal/mol.

For SIEEEIKKAEEAKEKGKTFIHGDFVATTEELLDELLKPLRKKL [R38P], the “folding stability dG” value was -0.239 kcal/mol.

Regarding SIEEEIKKAEEAKEKGKTFIHGDFVATTEELLDELLKDLRKKL [R38D], the “folding stability dG” value is 0.493 kcal/mol.

With SIEEEIKKAEEAKEKGKTFIHGDFVATTEELLDELLKWLRKKL [R38W], the “folding stability dG” value is 2 kcal/mol.

Consider SIEEEIKKAEEAKEKGKTFIHGDFVATTEELLDELLKGLRKKL [R38G], for which the “folding stability dG” value came out at 0.522 kcal/mol.

As for SIEEEIKKAEEAKEKGKTFIHGDFVATTEELLDELLKSLRKKL [R38S], the “folding stability dG” value was determined as 0.842 kcal/mol.

As for SIEEEIKKAEEAKEKGKTFIHGDFVATTEELLDELLKALRKKL [R38A], the “folding stability dG” value came to 1.37 kcal/mol.

On to SIEEEIKKAEEAKEKGKTFIHGDFVATTEELLDELLKNLRKKL [R38N], for which the “folding stability dG” value stood at 0.87 kcal/mol.

As for SIEEEIKKAEEAKEKGKTFIHGDFVATTEELLDELLKFLRKKL [R38F], the “folding stability dG” value worked out at 1.83 kcal/mol.

Take SIEEEIKKAEEAKEKGKTFIHGDFVATTEELLDELLKLLRKKL [R38L]: the “folding stability dG” value is 1.94 kcal/mol.

For the variant SIEEEIKKAEEAKEKGKTFIHGDFVATTEELLDELLKQLRKKL [R38Q], the “folding stability dG” value worked out at 1.23 kcal/mol.

As to SIEEEIKKAEEAKEKGKTFIHGDFVATTEELLDELLKKLRKKL [R38K], the “folding stability dG” value was found to be 1.02 kcal/mol.

As for SIEEEIKKAEEAKEKGKTFIHGDFVATTEELLDELLKELRKKL [R38E], the “folding stability dG” value amounted to 0.927 kcal/mol.

The record behind these values is the MegaScale stability set (Tsuboyama et al. 2023).
